Test results from US20040106569.
Marks after values point to notes of the source that are not given here.

Columns and labels:
[1] = tested on: GST-GSK3 fusion protein (Cell Signaling Technology)
[2] = tested on: myelin basic protein

Substance	non-radioactive in vitro kinase assay, phosphorylated substrate detected by Western blot [1]	Activity (phosphorylation of MPB) [2]	radioactive in vitro kinase assay, 32P incorporation by autoradiography (FIG. 11B) [2]
PKNbeta kinase domain comprising amino acids 535-889	Only the full length wildtype protein kinase N beta or the kinase domain as defined in example 9 were suitable to phosphorylate the substrate	+*	the full length wildtype protein kinase N beta as well as the kinase domain show activity
PKNbeta kinase domain having a mutation at position 588 from lysine to arginine	–	-*	–
PKNbeta kinase domain with threonine 718 changed to aspartic acid	–	-*!	–
PKNbeta kinase domain having a mutation at position 588 from lysine to glutamic acid	–	-*	–
PKNbeta kinase domain with threonine 718 changed to glutamic acid	–	-*!	–
PKNbeta kinase domain with threonine 718 changed to alanine	–	-*	–
